Experimental data as given in PMC2830281.

Experiments:
Experiment in all cases: latex bead solid phase immunoassay read by flow cytometry
[1] = molecular target: mouse IgG2a (native, on latex beads) (mouse)
[2] = molecular target: mouse IgA (native, on latex beads) (mouse)
[3] = molecular target: mouse IgM (native, on latex beads) (mouse)
[4] = molecular target: mouse IgG3 (native, on latex beads) (mouse)
[5] = molecular target: mouse IgG2b (native, on latex beads) (mouse)
[6] = molecular target: mouse IgG1 (native, on latex beads) (mouse)

Measured: fold lower mean fluorescence intensity than beads with catfish IgM

mouse IgG2a (native, on latex beads) (mouse), sequence (P01863 whole entry, chain 1 of 2, other chains not shown): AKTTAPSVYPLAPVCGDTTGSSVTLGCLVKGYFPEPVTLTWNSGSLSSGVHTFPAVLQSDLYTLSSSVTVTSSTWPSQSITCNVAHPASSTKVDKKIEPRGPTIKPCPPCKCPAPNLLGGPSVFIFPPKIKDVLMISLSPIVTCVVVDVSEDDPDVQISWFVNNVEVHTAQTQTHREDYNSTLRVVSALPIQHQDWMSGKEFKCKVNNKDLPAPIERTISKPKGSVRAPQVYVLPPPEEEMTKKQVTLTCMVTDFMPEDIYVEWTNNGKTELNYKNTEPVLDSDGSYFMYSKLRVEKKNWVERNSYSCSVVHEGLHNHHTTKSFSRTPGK
mouse IgM (native, on latex beads) (mouse), sequence (P01872 whole entry, chain 1 of 3, other chains not shown): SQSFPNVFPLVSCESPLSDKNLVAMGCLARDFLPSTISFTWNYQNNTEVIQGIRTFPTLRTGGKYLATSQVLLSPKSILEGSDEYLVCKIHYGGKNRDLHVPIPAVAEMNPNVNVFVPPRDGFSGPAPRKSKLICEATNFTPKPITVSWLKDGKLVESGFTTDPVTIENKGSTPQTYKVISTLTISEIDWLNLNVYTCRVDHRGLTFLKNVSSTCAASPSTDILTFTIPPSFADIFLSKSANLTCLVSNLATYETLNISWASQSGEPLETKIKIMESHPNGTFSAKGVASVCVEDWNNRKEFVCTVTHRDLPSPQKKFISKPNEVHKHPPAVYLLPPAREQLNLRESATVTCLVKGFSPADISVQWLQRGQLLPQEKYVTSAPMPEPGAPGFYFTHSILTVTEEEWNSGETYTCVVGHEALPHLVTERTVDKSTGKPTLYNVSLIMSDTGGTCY
mouse IgM (native, on latex beads) (mouse), sequence (P01592 22-159, chain 3 of 3, other chains not shown, further chain): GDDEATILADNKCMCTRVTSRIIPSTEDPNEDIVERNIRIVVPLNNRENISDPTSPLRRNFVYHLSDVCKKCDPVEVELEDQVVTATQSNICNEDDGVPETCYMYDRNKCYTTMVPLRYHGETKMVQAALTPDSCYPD

recombinant IpFcRI (D1-D2-D3), channel catfish soluble FcμR (receptor)
5 fold: all assays above
